This is an account of results in doi:10.1101/551788.

For the experiment, the target named is Tom20.CIB.GFP (not stated | A. thaliana). Description: light-induced recruitment to mitochondria.

As to “Cry2(1-531).mCh (from UniProt Q96524 1-531) (domain or fragment)”, the half-life of association with the OMM is 6.25 min.

With “Cry2(1-531).L348F.mCh (from UniProt Q96524 1-531) (domain or fragment)”, the half-life of association with the OMM was determined as 32.8 min.
